Results from US9724381B2 (THE ADMINISTRATORS OF THE TULANE EDUCATIONAL FUND, priority 2009, dated 2017).
Like-named read-outs stand apart in the source and are kept apart here. Where no end group is shown, it is not given here. [ ]: non-standard residue; d: D form. The star is where a group is joined. d2Nal = N[C@H](Cc1ccc2ccccc2c1)C(=O)O; Palmitoyl = CCCCCCCCCCCCCCCC(=O)*; Octanoyl = CCCCCCCC(=O)*; Dap = NC[C@H](N)C(=O)O

What was measured:
ghrelin-R (GHS-R 1a) [1] = biological target: T1, ghrelin-R (GHS-R 1a) (Rattus norvegicus, UniProt O08725); experiment: Food intake after administration of peptide (FIG. 10); format: in vivo
T1 construct: from tissue; host or cells: whole animal (hypothalamus)
T1 sequence (O08725 whole entry): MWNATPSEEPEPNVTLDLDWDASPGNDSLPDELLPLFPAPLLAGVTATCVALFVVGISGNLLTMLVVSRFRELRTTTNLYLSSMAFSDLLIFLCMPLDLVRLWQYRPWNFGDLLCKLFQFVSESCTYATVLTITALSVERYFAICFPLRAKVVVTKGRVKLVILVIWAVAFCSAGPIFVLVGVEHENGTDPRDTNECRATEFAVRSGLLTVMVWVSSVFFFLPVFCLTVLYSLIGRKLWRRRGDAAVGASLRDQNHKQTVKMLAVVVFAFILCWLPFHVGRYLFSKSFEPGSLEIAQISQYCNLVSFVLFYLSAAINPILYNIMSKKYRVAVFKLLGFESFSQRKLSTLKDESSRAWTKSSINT

ghrelin-R (GHS-R 1a) [2] = biological target: T1, ghrelin-R (GHS-R 1a); experiment: Plasma growth hormone / GH secretion after administration of peptide (FIG. 11); format: in vivo
[3] = biological target: T2, ghrelin O-acyltransferase (GOAT) (Mus musculus, UniProt P0C7A3); conditions: Yang et al. 2008; cited from earlier work
T2 sequence (P0C7A3 1-435): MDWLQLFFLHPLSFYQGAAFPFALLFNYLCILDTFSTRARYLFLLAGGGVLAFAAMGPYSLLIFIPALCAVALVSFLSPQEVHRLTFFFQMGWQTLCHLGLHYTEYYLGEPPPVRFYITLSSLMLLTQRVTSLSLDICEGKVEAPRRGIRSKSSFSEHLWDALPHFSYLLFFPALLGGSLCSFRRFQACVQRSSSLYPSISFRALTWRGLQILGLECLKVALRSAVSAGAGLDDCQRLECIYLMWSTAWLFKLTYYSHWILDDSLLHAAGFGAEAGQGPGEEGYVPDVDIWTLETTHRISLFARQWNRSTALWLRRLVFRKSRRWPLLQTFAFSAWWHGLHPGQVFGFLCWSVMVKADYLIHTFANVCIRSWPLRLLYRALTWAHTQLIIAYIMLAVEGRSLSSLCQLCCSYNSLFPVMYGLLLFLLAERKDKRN

[4] = biological target: T3, Ghrelin/GHRP/GHS Receptor (Rattus norvegicus, UniProt O08725); experiment: In vivo GH release in rat (serum GH by RIA after i.v. peptide); conditions: Table 2
T3 sequence (O08725 whole entry): as the sequence (O08725 whole entry) above
Protocol: For the in vivo assay of GH Release in rat, immature female Sprague Dawley rats were obtained from Charles River from Wilmington, Mass. After arrival they were housed at 25° C. with a 14:10 h light:dark cycle. Water and Purina rat chow were available at libitum. Pups were weaned at 21 days of age.
Immature twenty six day old female Sprague Dawley rats, 3-6 rats per treatment dose, were pretreated with pentobarbital 20 minutes before iv injection of vehicle/peptide or peptide plus stimulator. Injection was made as a 0.1 ml solution. For the non-pentobarbital treated rat assay, peptides were administered iv into the tail vein of conscious rats. All animals were sacrificed by guillotine after iv peptide or vehicle. Trunk blood was collected at +10-15 minutes […], allowed to clot, centrifuged and serum stored until assayed for GH levels by RIA. The GH RIA reagents were distributed by the NIH. Control data was collected from rats treated with only the corresponding vehicle in the absence of peptide or stimulator. Control stimulated data was collected from rats treated with stimulator alone in the absence of any peptide.

GHS-R 1a [5] = biological target: T4, GHS-R 1a (Rattus norvegicus, UniProt O08725); experiment: Plasma GH (ghrelin-induced, GHRH-induced, spontaneous pulsatile) in free-moving adult male rats after GHS-A; format: in vivo; conditions: for plasma GH response to ghrelin, central: 5 μg GHS-A i.c.v. 15 min before 500 ng ghrelin i.c.v.
T4 construct: free-moving rats were i.c.v. injected with either normal saline or GHS-A (5 μg); from tissue; host or cells: whole animal (rat; hypothalamus/pituitary)
T4 sequence (O08725 whole entry): as the sequence (O08725 whole entry) above
Protocol: (§1) Adult male Sprague Dawley rats (225-260 g) were purchased from Charles River Canada (St. Constant, Canada) and individually housed on a 12-h light, 12-h dark cycle (lights on, 0600-1800 h) in a temperature (22±1° C.)- and humidity-controlled room. Purina rat chow (Ralston Purina Co., St. Louis, Mo.) and tap water were available ad libitum.
(§2) Chronic intracerebroventricular (i.c.v.) and intracardiac venous cannulas were implanted under sodium pentobarbital (50 mg/kg, i.p.) anesthesia using previously described techniques in (2) and (11). The placement of the icy cannulae was verified by both a positive drinking response to i.c.v. carbachol (100 ng/10 μl) injection on the day after surgery and methylene blue dye at the time of death. After surgery, the rats were placed directly in isolation test chambers with food and H2O freely available until body weight returned to preoperative levels (usually within 5-7 d). During this time the rats were handled daily to minimize any stress associated with handling on the day of the experiment. On the test day, food was removed 1.5 h before the start of sampling and was returned at the end.
The efficacy of GHS-A to antagonize ghrelin's stimulatory action on GH at both central and peripheral sites was examined. […] (500 ng). Both the human ghrelin peptide (provided by Dr. K. Chang, Phoenix Pharmaceuticals, Inc., Belmont, Calif.) and the GHS-A were diluted in normal saline just before use. Blood samples (0.35 ml) were withdrawn every 15 min over a 6-h sampling period (1000-1600 h) from all animals. […] All blood samples were immediately centrifuged, and plasma was separated and stored at −20° C. for subsequent assay of GH. To avoid hemodynamic disturbance, the red blood cells were resuspended in normal saline and returned to the animal after removal of the next blood sample.
Blood samples were withdrawn from 1000-1600 h, as described above.
These time points were chosen because they correspond closely to the time of onset of the spontaneous GH secretory episodes, as previously documented in our laboratory (2, 4). Blood samples were withdrawn from 1000-1600 h, as described above; however, no blood sample was withdrawn 5 min after the injections.

GHS-R 1a [6] = biological target: T4, GHS-R 1a; experiment: Spontaneous and ghrelin-induced food intake in rats after i.c.v. GHS-A; format: in vivo
Protocol: as §1, §2
The effects of the GHS-A on both spontaneous and ghrelin-induced food intake and body weight gain were investigated. For the spontaneous experiments, the rats were fasted overnight (1600-1100 h next morning) and were i.c.v.-injected with either normal saline or GHS-A (5 μg) at 1100 h. Food intake was monitored on an hourly basis for 5 h after the initial injection (until 1600 h) and subsequently overnight (1600-0900 h next morning). A measured amount of rat chow pellets was placed in the cage every hour. Spillage was collected by placement of a diaper under the rat cages, and total food consumed for each period was calculated by subtracting uneaten food plus spillage from total given. Body weights were recorded daily at 0900 h. The latency to the onset of the first meal after the injection and the duration of that meal were also monitored.
Food intake was monitored on an hourly basis as described above. In this experiment, food was removed 1.5 h before the start of the test.

[7] = biological target: T3, Ghrelin/GHRP/GHS Receptor; experiment: In vitro GH release from isolated pituitary glands, pituitary incubation method; format: cell-based; conditions: Table 1; peptide antagonist 100 μg/ml + stimulator His-DTrp-Ala-Trp-DPhe-Lys-NH2 10 ng/ml
Protocol: Hormonal activities were obtained from in vitro studies using pituitaries of 20 day old CD-1 strain Sprague Dawley female rats. Two pituitaries were incubated for a total of 4-6 hours. Medium was removed each hour for RIA of GH level and fresh medium was added again. After two one hour preincubation periods (P1-P2), the vehicle/peptides were added to two one hour incubations (I3-I4). Peptide activity was calculated as the change in the hormonal level (delta) between I3+I4 and P2. For antagonist activity, the incubation was continued for 2 additional hours (I5-I6) where both the peptide and a stimulator of GH secretion was added and the antagonist activity was calculated as the change in the hormonal level (delta) between I5+I6 and P2. The peptides were assayed in triplicate and the hormone was assayed in duplicate. Each value recorded represents the mean of 6. The GH RIA reagents were distributed by the NIH. Control data was collected from isolated pituitary glands treated with only the corresponding vehicle in the absence of peptide or stimulator. Control stimulated data was collected from isolated pituitary glands treated with stimulator alone in the absence of any peptide.

[8] = listed as Gly-Met-Ala-Gly-Ser-(Dap-Oct)-Phe-Leu-Ser-Pro-Glu-His-NH2
[9] = listed as Gly-Met-Ala-Gly-Ser-(Dap-Palmityl)-Phe-Leu-Ser-Pro-Glu-His-NH2
[10] = 5 μg GHS-A i.c.v., spontaneous GH pulses
[11] = overnight-fasted animals, 5 μg GHS-A i.c.v.

## Gly-Met-Ala-Gly-Ser-(Dap-Oct)-Phe-Leu-Ser-Pro-Glu-His-NH2 (GMAGS[Dap](Octanoyl)FLSPEH-NH2; N-terminus assumed; SMILES CCCCCCCC(=O)NC[C@H](NC(=O)[C@H](CO)NC(=O)CNC(=O)[C@H](C)NC(=O)[C@H](CCSC)NC(=O)CN)C(=O)N[C@@H](Cc1ccccc1)C(=O)N[C@@H](CC(C)C)C(=O)N[C@@H](CO)C(=O)N1CCC[C@H]1C(=O)N[C@@H](CCC(=O)O)C(=O)N[C@@H](Cc1c[nH]cn1)C(N)=O) [peptide #3]
ghrelin-R (GHS-R 1a) [1]
  food intake: inhibited food intake
ghrelin-R (GHS-R 1a) [1]; [8]
  food intake: reduced
ghrelin-R (GHS-R 1a) [2]
  growth hormone secretion / plasma growth hormone levels: inhibited growth hormone secretion
ghrelin-R (GHS-R 1a) [2]; [8]
  growth hormone secretion / plasma growth hormone levels: inhibited

## Gly-Met-Ala-Gly-Ser-(Dap-Palmityl)-Phe-Leu-Ser-Pro-Glu-His-NH2 (GMAGS[Dap](Palmitoyl)FLSPEH-NH2; N-terminus assumed; SMILES CCCCCCCCCCCCCCCC(=O)NC[C@H](NC(=O)[C@H](CO)NC(=O)CNC(=O)[C@H](C)NC(=O)[C@H](CCSC)NC(=O)CN)C(=O)N[C@@H](Cc1ccccc1)C(=O)N[C@@H](CC(C)C)C(=O)N[C@@H](CO)C(=O)N1CCC[C@H]1C(=O)N[C@@H](CCC(=O)O)C(=O)N[C@@H](Cc1c[nH]cn1)C(N)=O) [peptide #6]
ghrelin-R (GHS-R 1a) [1]; [9]
  food intake: did not inhibit GH secretion or decreased food intake
ghrelin-R (GHS-R 1a) [2]; [9]
  growth hormone secretion / plasma growth hormone levels: did not inhibit

## Gly-Ser-Ser(Oct)-Phe-Leu (GSS(Octanoyl)FL) [octanoylated ghrelin pentapeptide]
[3]
  GOAT activity: inhibited
  potency enhancement when octanoylated serine-3 replaced by octanoylated diaminopropionic acid: 45 fold

## His-DβNal-DLys-Trp-DPhe-Lys-NH2 (H[d2Nal][dK]W[dF]K-NH2; N-terminus assumed; SMILES NCCCC[C@H](NC(=O)[C@@H](Cc1ccccc1)NC(=O)[C@H](Cc1c[nH]c2ccccc12)NC(=O)[C@@H](CCCCN)NC(=O)[C@@H](Cc1ccc2ccccc2c1)NC(=O)[C@@H](N)Cc1c[nH]cn1)C(N)=O) [GHRP derivative ghrelin receptor antagonist; GHS-A of the rat studies per b295]
[4]; peptide antagonist 30 μg i.v. + stimulator DAla-DβNal-Ala-Trp-DPhe-Lys-NH2 0.3 μg
  Stimulated GH release from rat: 733 ± 85 ng/mL
[4]; peptide antagonist 100 μg i.v. + stimulator DAla-DβNal-Ala-Trp-DPhe-Lys-NH2 1 μg
  Stimulated GH release from rat: 818 ± 269 ng/mL
GHS-R 1a [5]; 5 μg GHS-A i.c.v.
  1-h GH AUC of the spontaneous GH secretory episode at 1100 h: significantly reduced
  1-h GH AUC of the spontaneous GH secretory episode at 1400 h: significantly reduced
  overall 6-h GH AUC: significantly reduced
GHS-R 1a [5]; listed as GHS-A
  plasma GH response to ghrelin, central: abolished
GHS-R 1a [5]; listed as HisDβNalDLysTrpDPheLysNH2
  plasma GH response to ghrelin, central: virtually obliterated
GHS-R 1a [5]; 5 μg GHS-A i.c.v. 15 min before expected GH secretory bursts
  amplitude of the spontaneous GH pulses: severely attenuated
GHS-R 1a [5]; 5 μg GHS-A i.c.v., ghrelin 500 ng i.c.v., vs normal saline controls
  reduction of GH AUC following i.c.v. ghrelin: 15 fold
GHS-R 1a [5]; [10]
  GH interpeak interval (cluster analysis): no significant effect
  GH nadir (cluster analysis): no significant effect
  GH peak frequency (cluster analysis): no significant effect
  GH peak height (cluster analysis): significant suppression
GHS-R 1a [5]; 250 μg GHS-A i.v. 15 min before 5 μg ghrelin i.v.
  plasma GH response to ghrelin, peripheral: strongly blocked
GHS-R 1a [5]; 250 μg GHS-A i.v., ghrelin 5 μg i.v., vs normal saline controls
  reduction of GH AUC following i.v. ghrelin: 5 fold
GHS-R 1a [5]; GHRH 5 μg i.v.
  GH response to GHRH: did not significantly reduce
GHS-R 1a [6]; 5 μg GHS-A i.c.v. before ghrelin 500 ng i.c.v., up to 5 h after injection
  cumulative food intake, ghrelin-stimulated: significantly suppressed
GHS-R 1a [6]; 5 μg i.c.v. before ghrelin 500 ng i.c.v.
  ghrelin-stimulated food intake in the first hour after injections: significantly inhibited
GHS-R 1a [6]; [11]
  cumulative food intake beyond the first hour after injection: not inhibited
  spontaneous food intake in the first hour after injection: significantly inhibited

## Tyr-DTrp-Lys-Trp-DPhe-NH2 (Y[dW]KW[dF]-NH2; N-terminus assumed; SMILES NCCCC[C@H](NC(=O)[C@@H](Cc1c[nH]c2ccccc12)NC(=O)[C@@H](N)Cc1ccc(O)cc1)C(=O)N[C@@H](Cc1c[nH]c2ccccc12)C(=O)N[C@H](Cc1ccccc1)C(N)=O)
[7]
  Change in stimulated GH release versus preincubation (delta): -555 ± 121 ng/mL
